Read-outs that look alike come from different tables or passages of the source. One block for each molecule: values may come before it.
Assays:
Test in all cases: cross-linking
[1] = target: A. aegypti GPA2-FLAG (Aedes aegypti) (UniProt C6SUP2)
[2] = target: A. aegypti GPA2-FLAG (Aedes aegypti) (UniProt C6SUP2); remark: listed apart in the source
[3] = target: A. aegypti GPA2-His (Aedes aegypti) (UniProt C6SUP2)
cross-linking [4] = target: the molecule itself
cross-linking [5] = target: the molecule itself; remark: listed apart in the source

- stoichiometry N [1]: 2
- stoichiometry N [2]: 2
Molecule: A. aegypti GPA2-FLAG (from UniProt C6SUP2 1-120) (natural protein)

- stoichiometry N [3]: 2
Molecule: A. aegypti GPA2-His (from UniProt C6SUP2 1-120) (natural protein)

B1: H. sapiens GPA2-FLAG (natural protein, UniProt Q96T91 24-129, looked up)
chain: QEAVIPGCHLHPFNVTVRSDRQGTCQGSHVAQACVGHCESSAFPSRYSVLVASGYRHNITSVSQCCTISGLKKVKVQLQCVGSRREELEIFTARACQCDMCRLSRY
- stoichiometry N (cross-linking [4]): 2

B2: H. sapiens GPB5-His (natural protein, UniProt Q86YW7 25-130, looked up)
chain: ASSGNLRTFVGCAVREFTFLAKKPGCRGLRITTDACWGRCETWEKPILEPPYIEAHHRVCTYNETKQVTVKLPNCAPGVDPFYTYPVAIRCDCGACSTATTECETI
- stoichiometry N (cross-linking [4]): 2

B3: A. aegypti GPB5-His (natural protein, Aedes aegypti, UniProt C6SUR0 1-162, looked up)
chain: VEDSLFISGFEKKAPMLGCHKRVFTYRISQADSKGRECWDHVSVWSCHGRCDSNEISDWRFPYKRSHHPVCMHAGRTRSVATLRHCHPEADAEAKLYEYMEPKSCSCQTCTSMDTSCEGPKQLSTDAATKIFQIDDEEIESEYA
- stoichiometry N (cross-linking [5]): 2

From publication doi:10.1101/694653 (bioRxiv, 2019)
